Assays:
[1] = target: PorK with a C-terminal twin strep tag (PorK-Strep), subunit of the purified PorKN ring (Porphyromonas gingivalis); assay: cryo-EM structure; PorKN rings purified from P. gingivalis through the twin strep tag on PorK (Strep-Tactin, 0.5% Triton X-100); single and double rings; whole rings at 7.4 Å (single) and 5.6 Å (double) with 33-fold symmetry; focused refinement of a segment in C1 to 3.2 Å
[2] = target: PorN, subunit of the purified PorKN ring (Porphyromonas gingivalis (endogenous in P. gingivalis)); assay: as above

## PorK with a C-terminal twin strep tag (PorK-Strep), subunit of the purified PorKN ring (natural protein)
[1]
  stoichiometry N: 33

## PorN, subunit of the purified PorKN ring (natural protein)
[2]
  stoichiometry N: 33
